Measurements published in the nanobody polyreactivity screen of Harvey et al. (2022).

Test: yeast display, Sf9 membrane polyspecificity reagent, FACS + sequencing; frameworks hold sequencing errors
Method in brief: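 Using colony PCR, genes from sorted yeast display clones were amplified, then sequenced on MiSeq at 2 × 250 and filtered by CDR length. The clones had been stained with 10% biotinylated, detergent-solubilized Sf9 membrane reagent for 1 hour at 4 °C and sorted by FACS into low and high (top ~1%) gates on anti-HA and streptavidin fluorescence. Polyreactivity labels come from the gate of origin.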
With “QVQLVESGGGLVQAGGSLRLSCAASGRIFFYNVMGWYRQAPGKERELVAAITTIGGSTYYADSVKGRFTISRDNAKNTVYLQMNTLKPEDTAVYYCAAGWVTNSDGMDYWGQGTQVTVSS” the “polyreactivity (PSR sort gate)” value was “low polyreactivity”.
In the case of “QVQLVESGGGLVQAGGSLRLSCAASGRIFFYYAMGWYRQAPGTERELVAAITSGGNTNYADSVKGRFTISRDNAKNTVYLQMNSLKPEDTAVYYCAVDSWEYWRRGIYYYRFYYWGQGTQVTVSS”, the “polyreactivity (PSR sort gate)” value is reported as “low polyreactivity”.
In the case of “QVQLVESGGGLVQAGGSLRLSCAASGRIFGANAMGWYRQAPGKERELVAAISRTGGSTYYADSVKGRFTISRDNAKNTVYLQMNSLKPEDTAVYYCNAVYRYAHPMEYWGQGTQVTVSS”, the “polyreactivity (PSR sort gate)” value is reported as “high polyreactivity”.
With “QVQLVESGGGLVQAGGSLRLSCAASGRIFGANAMGWYRQAPGKERELVAVITGGGGTYYADSVKGRFTISRDNSKNTVYLQINSLKPEDTAVYYCDWPRYYYTYPSHPMDYWGQGTQVTVSS” the “polyreactivity (PSR sort gate)” value was “low polyreactivity”.
For “QVQLVESGGGLVQAGGSLRLSCAASGRIFGAYAMGWYRPAPGKERELVAAITSRGSTNYADSVKGRFTISRDHAKNTVYLQMNSLNPEDTAVYYCARRAVYSKRRYDYWGQGTQVTVSS”, the “polyreactivity (PSR sort gate)” value was “low polyreactivity”.
In the case of “QVQLVESGGGLVQAGGSLRLSCAASGRIFGAYAMGWYRQATGKERELVAAIRWSGARTYYADSVKGRFTISRDNAKNTVYLQMNSLKPEDTAVYYCATRQAYRPLKFDYWGQGTQVTVSS”, the “polyreactivity (PSR sort gate)” value is reported as “high polyreactivity”.
For “QVQLVESGGGLVQAGGSLRLSCAASGRIFGAYARGWYRQAPGKERELVAAITSAGSTHYADSVKGRFTISRDNAKNTVYLQMNSLKPEDTAVYYCAADGIARAYVLFDAYDFLYDYWGQGTQVSVSS”, the “polyreactivity (PSR sort gate)” value was “low polyreactivity”.
For “QVQLVESGGGLVQAGGSLRLSCAASGRIFGAYTMGWYRQAPGKERELVAAISWSGGRTYYADSVKGRFTISRDNAKNTVYLQMNSVKPEDTAVYYCAASYSGRQDRYPHYDYWGQGTQVTVSS”, the “polyreactivity (PSR sort gate)” value was “low polyreactivity”.
With “QVQLVESGGGLVQAGGSLRLSCAASGRIFGDNAMGWYRQAPGKERELVATISRGGTTNYADSVKGRFTISRDNAKNTVYLQMNSLKPEDTAVYYCNARSGGHGYSRYQTYLRYDYWGQGTQVTVSS” the “polyreactivity (PSR sort gate)” value was “low polyreactivity”.
With “QVQLVESGGGLVQAGGSLRLSCAASGRIFGDYAMGWYRQAPGKERELVAAINSSGTSTNYADSVKGRFTISRDNAKNTVYLQMNSLKPEDTAVYYCNAEGTYRPDYDSWGQGTQVTVSS” the “polyreactivity (PSR sort gate)” value was “low polyreactivity”.
For “QVQLVESGGGLVQAGGSLRLSCAASGRIFGDYAMGWYRQAPGKERELVAAISWSDGSTYYADSVKGRFTISRDNAKNTVYLQMNSLKPEDTAVYYCAAYGWGYRYVDVVVSDFYYWGQGTQVTVSS”, the “polyreactivity (PSR sort gate)” value was “low polyreactivity”.
In the case of “QVQLVESGGGLVQAGGSLRLSCAASGRIFGFNAMGWYRQAPGKERELVAGITDSSGRTNYADSVKGRFTISRDNAKNTVYLQMNSLKPEDTAVYYCAKDGLVIPADGSDYWGQGTQVTVSS”, the “polyreactivity (PSR sort gate)” value is reported as “low polyreactivity”.
For “QVQLVESGGGLVQAGGSLRLSCAASGRIFGFNTMGWYRQAPGKERELVAAITSRDGRTYYADSVKGRFTISRDNAKNTVYLQMNSLKPEDTAVYYCATQYRWYAESHGLVTSVIMYSWGQGTQVTVSS”, the “polyreactivity (PSR sort gate)” value was “low polyreactivity”.
For “QVQLVESGGGLVQAGGSLRLSCAASGRIFGFYALGWYRQAPGKERELVAAITVSGSSTRYADSVKGRFTISRDNAKNTVYLQMNSLKPDDTAVYYCAASVGQFRYRYKWTFGNARMYYWGQGTQVTVSS”, the “polyreactivity (PSR sort gate)” value was “high polyreactivity”.
In the case of “QVQLVESGGGLVQAGGSLRLSCAASGRIFGFYAMGWYRQAPGKERELVAVITYRDGRTYYADSVKGRFTISRDNAKNTVYLQMNSLKPQDTAVYYCAADRGVYDPGDYWGQGTQVTVSS”, the “polyreactivity (PSR sort gate)” value is reported as “low polyreactivity”.
In the case of “QVQLVESGGGLVQAGGSLRLSCAASGRIFGFYGMGWYRQAPGKERELVAAITNRVGSTYYADSVKGRFTISRDNAKNTVYLHMHSLKPEDTAVYSCARRSGWWTRMDSWGQGTQVTVSS”, the “polyreactivity (PSR sort gate)” value is reported as “high polyreactivity”.
In the case of “QVQLVESGGGLVQAGGSLRLSCAASGRIFGGNALGWYRQAPGYARALVAAISWIGGTTYYADSVKGRFTISRDNAKNTVYLQMNSLKPEDTAVYYCAAYRYRPHVHRYYRYDYWGQGTQVTVSS”, the “polyreactivity (PSR sort gate)” value is reported as “high polyreactivity”.
For “QVQLVESGGGLVQAGGSLRLSCAASGRIFGGNTMGWYRQAPGKEREFVAAITQSGTRTYYADSVKGRFTISRDNAKNTVYLQMNSLKPEDTAVYYCAAEGYWYPYDYWGQGTQVTVSS”, the “polyreactivity (PSR sort gate)” value was “high polyreactivity”.
In the case of “QVQLVESGGGLVQAGGSLRLSCAASGRIFGGNTMGWYRQAPGKEREFVAAITQSGTRTYYADSVKGRFTISRDNAKNTVYLQRNSLKPEDTAVDYCAAEGYWYPYDYWRQGTQVTVSS”, the “polyreactivity (PSR sort gate)” value is reported as “high polyreactivity”.
For “QVQLVESGGGLVQAGGSLRLSCAASGRIFGGYAMGGDRQAPGKERELVAVISGRGGSTYYADSVKGRFTISRDNAKNTVYLQMNSLKPEDTAVYYCTVYRRIQRYGPQSYDYWGQGTQVTVSS”, the “polyreactivity (PSR sort gate)” value was “high polyreactivity”.
In the case of “QVQLVESGGGLVQAGGSLRLSCAASGRIFGGYAMGWYRPAPGKERELVAAISWRGGTTYYADSVKGRFTISRDNAKNTVYLQMNSLKPEDTAVYYCNADVVRYRHWHRGDYWGQGTQVTVSS”, the “polyreactivity (PSR sort gate)” value is reported as “low polyreactivity”.
For “QVQLVESGGGLVQAGGSLRLSCAASGRIFGGYAMGWYRQAPGKERELVAAISSGGNTKYADSVKGRFTISRDNAKNTVYLQMNSLKPEDTAVYYCAAAPYARREYEYWGQVTQVTVSS”, the “polyreactivity (PSR sort gate)” value was “high polyreactivity”.
With “QVQLVESGGGLVQAGGSLRLSCAASGRIFGGYAMGWYRQAPGKERELVAAISSSGGRTYYADSVKGRFTISRDNSKKTVYLQMNSLKPEDTAVYYCNAGAGQRVSGHSFEDWGQGTQVTVSS” the “polyreactivity (PSR sort gate)” value was “high polyreactivity”.
With “QVQLVESGGGLVQAGGSLRLSCAASGRIFGINAMGWYRQAPGKERELVAAINWSGGSTYYADSVKGRFTISRDNAKNTVYIQMNSLKPEDSAVYYCAAQKYKRVGYWGQGTQVTVSS” the “polyreactivity (PSR sort gate)” value was “high polyreactivity”.
In the case of “QVQLVESGGGLVQAGGSLRLSCAASGRIFGIYAMGGSRQAPGKERELVASITDGTITYYADSVKGRFTISRDNAKNTVYLQMNSLKPEDTAVYYCAAGTQAHAYVVRPIEMDYWGQGTQVTVSS”, the “polyreactivity (PSR sort gate)” value is reported as “low polyreactivity”.
For “QVQLVESGGGLVQAGGSLRLSCAASGRIFGIYAMGWYRQAPGKERELVARITGGGSTNYADSVKARFTISRDNEKNTVYLQMNSLKPEDTAVYYCASTVRRIVGNITRYDYWGQGTQLTVSS”, the “polyreactivity (PSR sort gate)” value was “low polyreactivity”.
With “QVQLVESGGGLVQAGGSLRLSCAASGRIFGIYAMGWYRQAPGKERELVATITDSDDSTYYADSVKGRFTISRDNAKNTVYLQMNSLKPEDTAVYYCATAFSYGGGAYDYWGQGTQVTVSS” the “polyreactivity (PSR sort gate)” value was “low polyreactivity”.
With “QVQLVESGGGLVQAGGSLRLSCAASGRIFGKNAMGWYRQAPGKERELVAAISSSGGSTYYADSVKGRFTISRDNAKNTVYLQMNSLKPEDTAVYYCAAGVTRGMDYWGQGTQVTVSS” the “polyreactivity (PSR sort gate)” value was “high polyreactivity”.
In the case of “QVQLVESGGGLVQAGGSLRLSCAASGRIFGKNDMGWYRQAPGKETEFVATIDWSGGSTYYADSVKGRFTISRDNAKNTVYLQMNSLKPEDTAVYYCAASGWNRYLFDYWGQGTQVTVSS”, the “polyreactivity (PSR sort gate)” value is reported as “low polyreactivity”.
In the case of “QVQLVESGGGLVQAGGSLRLSCAASGRIFGLNAMGWYRQAPGKEREFVAAIRWRGGSTYYADSVKGRFTISRDNAKNTVYLQMNSLKPEDTAVYYCAADRNLGVSRYGYWGQGTQVTVSS”, the “polyreactivity (PSR sort gate)” value is reported as “high polyreactivity”.
For “QVQLVESGGGLVQAGGSLRLSCAASGRIFGLNGMGWSRQAPGKERELVARISSVGSTYSADSVKGRFTISRDNAKNTVDLQKNSLTPEDTSVYYCNRRRSRYLPTPDRIVEYDYWGQGTQVTVSS”, the “polyreactivity (PSR sort gate)” value was “low polyreactivity”.
With “QVQLVESGGGLVQAGGSLRLSCAASGRIFGLYAMGWYRQAPGKERELVARITRGGSTYADSVKGRFTISRDNAKNSVYLQMNSLKPEDTAVYYCNAEWIVRNSGDYEYWGQGTQVTVSS” the “polyreactivity (PSR sort gate)” value was “high polyreactivity”.
In the case of “QVQLVESGGGLVQAGGSLRLSCAASGRIFGNNAMGWYRQAPGKVRELVAAIRSRGTRTYYADSVKGRFTISRDNAKNTVNLQMNSLKPEDPAVYYCATTSLTGLYDRYDYWGQGTQVTVSS”, the “polyreactivity (PSR sort gate)” value is reported as “high polyreactivity”.
For “QVQLVESGGGLVQAGGSLRLSCAASGRIFGNTAMGWYRQAPGKERELVAAIRSRGTRTYYADSVKGRFTISRDNAKNTVYLQMNSLKPEDTAVYYCATTSLTGRYDRYDYWGQGTQVTVSS”, the “polyreactivity (PSR sort gate)” value was “high polyreactivity”.
In the case of “QVQLVESGGGLVQAGGSLRLSCAASGRIFGNYAMGWYRQAPGKERELVAAISGGGSTYYADSVKGRFTISRDKAKNTVYLQMNSLKPEDTAVYYCAARFLWSVFGRKGGYWGQGTQVTVSS”, the “polyreactivity (PSR sort gate)” value is reported as “low polyreactivity”.
With “QVQLVESGGGLVQAGGSLRLSCAASGRIFGNYAMGWYRQAPGKERELVASISRRGGSTYYADSVKGRFTISRDNAKNTVYLQMIRLKPEDTAVYYCATLRGRLRFGYDYWGQGTQVTVSS” the “polyreactivity (PSR sort gate)” value was “high polyreactivity”.
With “QVQLVESGGGLVQAGGSLRLSCAASGRIFGNYYKVWFRQAPGKERDLVAAISGGGSTYYADSVKGRFTISRDNAKNTVYLQMNSLKPEDTGVYYCAARFLWSVFGRKGGYWGQGTQVTVSS” the “polyreactivity (PSR sort gate)” value was “low polyreactivity”.
For “QVQLVESGGGLVQAGGSLRLSCAASGRIFGPYAMGWSRQAPGKERELVATITWRTGSTYYADSVKGRFTISRDNAKNTVYLQMNSLKPEDTEVYYSAARYGRYSKAGDYWGQGTQVTVSS”, the “polyreactivity (PSR sort gate)” value was “high polyreactivity”.
With “QVQLVESGGGLVQAGGSLRLSCAASGRIFGPYAMGWYRQAPGKERELVAAISFSGSGTYYADSVKGRFTISRDNAKNTVYFQMNSLKPEDTAVYYCAATSRKIVAYDHDYWGQGTQVTVSS” the “polyreactivity (PSR sort gate)” value was “low polyreactivity”.
In the case of “QVQLVESGGGLVQAGGSLRLSCAASGRIFGPYAMGWYRQAPGKERELVAAITRGGSTSYADSVKGRFTISRDNAKNTVDLQMISLKTEDTAVDYCAADTLRWWYGFDYWGQGTQVTVSS”, the “polyreactivity (PSR sort gate)” value is reported as “low polyreactivity”.
In the case of “QVQLVESGGGLVQAGGSLRLSCAASGRIFGPYTMGWYRQAPGKERELVAAIRSSGTSTYYADSVKGRFTISRDNAKNTVYLQMNSLKPEDTAVYYCNRARSSSRYDYWGQGTQVTVSS”, the “polyreactivity (PSR sort gate)” value is reported as “low polyreactivity”.
For “QVQLVESGGGLVQAGGSLRLSCAASGRIFGPYVMGWYRQAPGKERDFVAAISRRTGSTYYADSVKGRFTISRDNAKNTVYLQMNSLKPEDTAVYYCAATYYFSHVVGYGYWGQGTQVTVSS”, the “polyreactivity (PSR sort gate)” value was “high polyreactivity”.
With “QVQLVESGGGLVQAGGSLRLSCAASGRIFGQNAMGWYRQAPGKERELVASITTSGSSTNYADSVKGRFTISRDNAKNTVYLQMNSLKPEDTAVYYCAADYVSPDPDELHDYSGYYYWGQGTQVTVSS” the “polyreactivity (PSR sort gate)” value was “high polyreactivity”.
